Laboratory results as given in patent US6824972 (BAYLOR COLLEGE OF MEDICINE, dated 2004).

Biological target: T1, NF-κB relA subunit (human, UniProt Q04206 1-551)
T1 construct: also called re1A; p65
Assay: EMSA with supershift (antisera to p50 and relA), nuclear extracts of TNF-stimulated normal and patient G embryonic fibroblasts, 32P-labelled MHC-1 probe

T1 sequence (Q04206 whole entry): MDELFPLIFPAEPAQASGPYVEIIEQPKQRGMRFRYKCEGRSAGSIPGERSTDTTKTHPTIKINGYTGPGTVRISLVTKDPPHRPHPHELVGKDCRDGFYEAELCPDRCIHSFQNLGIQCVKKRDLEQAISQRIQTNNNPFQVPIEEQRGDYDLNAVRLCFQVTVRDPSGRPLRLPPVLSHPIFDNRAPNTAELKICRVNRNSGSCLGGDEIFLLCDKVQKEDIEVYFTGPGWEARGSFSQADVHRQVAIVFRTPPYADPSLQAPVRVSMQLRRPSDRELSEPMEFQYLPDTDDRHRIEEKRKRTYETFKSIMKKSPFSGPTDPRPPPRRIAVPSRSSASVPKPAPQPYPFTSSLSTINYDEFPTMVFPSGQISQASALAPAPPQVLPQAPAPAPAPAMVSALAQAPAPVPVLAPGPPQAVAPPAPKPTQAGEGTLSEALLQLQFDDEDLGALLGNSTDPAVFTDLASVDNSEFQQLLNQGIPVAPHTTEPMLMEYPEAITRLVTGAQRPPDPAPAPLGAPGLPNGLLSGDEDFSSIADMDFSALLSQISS

binding result: binds
B1: NF-κB p50 subunit (other, human, UniProt P19838 1-433, looked up)
chain: MAEDDPYLGRPEQMFHLDPSLTHTIFNPEVFQPQMALPTDGPYLQILEQPKQRGFRFRYVCEGPSHGGLPGASSEKNKKSYPQVKICNYVGPAKVIVQLVTNGKNIHLHAHSLVGKHCEDGICTVTAGPKDMVVGFANLGILHVTKKKVFETLEARMTEACIRGYNPGLLVHPDLAYLQAEGGGDRQLGDREKELIRQAALQQTKEMDLSVVRLMFTAFLPDSTGSFTRRLEPVVSDAIYDSKAPNASNLKIVRMDRTAGCVTGGEEIYLLCDKVQKDDIQIRFYEEEENGGVWEGFGDFSPTDVHRQFAIVFKTPKYKDINITKPASVFVQLRRKSDLETSEPKPFLYYPEIKDKEEVQRKRQKLMPNFSDSFGGGSGAGAGGGGMFGSGGGGGGTGSTGPGYSFPHYGFPTYGGITFHPGTTKSNAGMKHG
